± gives the standard deviation of the averaged measurements.
Test: total protein half-life in vivo (active degradation + dilution); higher = more stable protein
[1] = E. coli NCM3722 delta-clpP delta-lon delta-hslV, growth: N-lim chemostat, doubling time 6 h
[2] = E. coli NCM3722 delta-clpP, growth: N-lim chemostat, doubling time 6 h
[3] = E. coli NCM3722 delta-hslV, growth: N-lim chemostat, doubling time 6 h
[4] = E. coli NCM3722 delta-lon, growth: N-lim chemostat, doubling time 6 h
[5] = E. coli NCM3722 delta-smpB, growth: N-lim chemostat, doubling time 6 h
[6] = wild type E. coli NCM3722, growth: C-lim chemostat, doubling time 3 h
[7] = wild type E. coli NCM3722, growth: C-lim chemostat, doubling time 6 h
[8] = wild type E. coli NCM3722, growth: C-lim chemostat, doubling time 12 h
[9] = wild type E. coli NCM3722, growth: N-lim chemostat, doubling time 6 h
[10] = wild type E. coli NCM3722, growth: N-lim chemostat, doubling time 12 h
[11] = wild type E. coli NCM3722, growth: P-lim chemostat, doubling time 6 h
[12] = wild type E. coli NCM3722, growth: P-lim chemostat, doubling time 12 h

| Sequence | total protein half-life in vivo [1] [h] | total protein half-life in vivo [2] [h] | total protein half-life in vivo [3] [h] | total protein half-life in vivo [4] [h] | total protein half-life in vivo [5] [h] | total protein half-life in vivo [6] [h] | total protein half-life in vivo [7] [h] | total protein half-life in vivo [8] [h] | total protein half-life in vivo [9] [h] | total protein half-life in vivo [10] [h] | total protein half-life in vivo [11] [h] | total protein half-life in vivo [12] [h] |
| --- | --- | --- | --- | --- | --- | --- | --- | --- | --- | --- | --- | --- |
| MPQHDQLHRYLFENFAVRGELVTVSETLQQILENHDYPQPVKNVLAELLVATSLLTATLKFDGDITVQLQGDGPMNLAVINGNNNQQMRGVARVQGEIPENADLKTLVGNGYVVITITPSEGERYQGVVGLEGDTLAACLEDYFMRSEQLPTRLFIRTGDVDGKPAAGGMLLQVMPAQNAQQDDFDHLATLTETIKTEELLTLPANEVLWRLYHEEEVTVYDPQDVEFKCTCSRERCADALKTLPDEEVDSILAEDGEIDMHCDYCGNHYLFNAMDIAEIRNNASPADPQVH [P0A6Y5] | 4.77 ± 0.4 | 4.06 ± 0.058 | 4.35 ± 0.87 | 4.6 ± 0.6 | 3.55 ± 0.12 | 1.924 ± 0.015 | 3.85 ± 0.11 | 7.32 ± 0.54 | 4.02 ± 0.13 | 6.02 ± 0.22 | 4.51 ± 0.073 | 9.18 ± 2 |
| MFDVLMYLFETYIHTEAELRVDQDKLEQDLTDAGFEREDIYNALLWLEKLADYQEGLAEPMQLASDPLSMRIYTPEECERLDASCRGFLLFLEQIQVLNLETREMVIERVLALDNAEFELDDLKWVILMVLFNIPGCENAYQQMEELLFEVNEGMLH [P0A828] | 5.9529 ± 0.00025 | 0.182 | – | 0.569 | 0.365 | – | – | 0.0972 | 1.05 | – | – | – |
| MIWIMLATLAVVFVVGFRVLTSGARKAIRRLSDRLNIDVVPVESMVDQMGKSAGDEFLRYLHRPDESHLQNAAQVLLIWQIVIVDGSEQNLLQWHRILQKARLAAPITDAQVRLALGFLRETEPEMQDINAFQMRYNAFFQPAEGVHWLH [P0ADL3] | 5.96 ± 1.4 | 5.141 ± 0.016 | 4.75 | – | 4.7 ± 0.11 | 2.98 ± 0.21 | 5.07 ± 0.086 | 10.9 ± 2.9 | 4.71 | 10.8 | 4.65 ± 0.24 | 9.29 ± 1.7 |
| MILLIDNYDSFTWNLYQYFCELGADVLVKRNDALTLADIDALKPQKIVISPGPCTPDEAGISLDVIRHYAGRLPILGVCLGHQAMAQAFGGKVVRAAKVMHGKTSPITHNGEGVFRGLANPLTVTRYHSLVVEPDSLPACFDVTAWSETREIMGIRHRQWDLEGVQFHPESILSEQGHQLLANFLHR | 5.21 ± 0.68 | 5.02 | 3.72 ± 1.2 | 4.94 ± 0.68 | 4.35 ± 0.22 | 3.31 ± 0.049 | 5.88 ± 0.4 | 10 | – | 8.41 ± 0.11 | 6.18 ± 0.066 | 12.9 ± 0.99 |
| MPKLVTWMNNQRVGELTKLANGAHTFKYAPEWLASRYARPLSLSLPLQRGNITSDAVFNFFDNLLPDSPIVRDRIVKRYHAKSRQPFDLLSEIGRDSVGAVTLIPEDETVTHPIMAWEKLTEARLEEVLTAYKADIPLGMIREENDFRISVAGAQEKTALLRIGNDWCIPKGITPTTHIIKLPIGEIRQPNATLDLSQSVDNEYYCLLLAKELGLNVPDAEIIKAGNVRALAVERFDRRWNAERTVLLRLPQEDMCQTFGLPSSVKYESDGGPGIARIMAFLMGSSEALKDRYDFMKFQVFQWLIGATDGHAKNFSVFIQAGGSYRLTPFYDIISAFPVLGGTGIHISDLKLAMGLNASKGKKTAIDKIYPRHFLATAKVLRFPEVQMHEILSDFARMIPAALDNVKTSLPTDFPENVVTAVESNVLRLHGRLSREYGSK | 5.44 ± 0.06 | – | 5.63 ± 0.078 | 5.73 ± 0.54 | 5.22 ± 0.39 | 3 ± 0.061 | 5.65 ± 0.24 | 10.8 ± 0.14 | 5.21 ± 0.73 | 9.66 ± 1.8 | 6.37 ± 0.53 | – |
| MALTAALKAQIAAWYKALQEQIPDFIPRAPQRQMIADVAKTLAGEEGRHLAIEAPTGVGKTLSYLIPGIAIAREEQKTLVVSTANVALQDQIYSKDLPLLKKIIPDLKFTAAFGRGRYVCPRNLTALASTEPTQQDLLAFLDDELTPNNQEEQKRCAKLKGDLDTYKWDGLRDHTDIAIDDDLWRRLSTDKASCLNRNCYYYRECPFFVARREIQEAEVVVANHALVMAAMESEAVLPDPKNLLLVLDEGHHLPDVARDALEMSAEITAPWYRLQLDLFTKLVATCMEQFRPKTIPPLAIPERLNAHCEELYELIASLNNILNLYMPAGQEAEHRFAMGELPDEVLEICQRLAKLTEMLRGLAELFLNDLSEKTGSHDIVRLHRLILQMNRALGMFEAQSKLWRLASLAQSSGAPVTKWATREEREGQLHLWFHCVGIRVSDQLERLLWRSIPHIIVTSATLRSLNSFSRLQEMSGLKEKAGDRFVALDSPFNHCEQGKIVIPRMRVEPSIDNEEQHIAEMAAFFRKQVESKKHLGMLVLFASGRAMQRFLDYVTDLRLMLLVQGDQPRYRLVELHRKRVANGERSVLVGLQSFAEGLDLKGDLLSQVHIHKIAFPPIDSPVVITEGEWLKSLNRYPFEVQSLPSASFNLIQQVGRLIRSHGCWGEVVIYDKRLLTKNYGKRLLDALPVFPIEQPEVPEGIVKKKEKTKSPRRRRR | 5.64 ± 0.42 | 4.6 ± 0.54 | 4.38 ± 0.61 | 4.265 ± 0.026 | 4.63 ± 0.33 | 2.59 ± 0.09 | 3.93 ± 0.69 | 9.99 ± 0.84 | 4.18 ± 0.2 | 6.77 ± 1.1 | 4.57 ± 0.25 | 8.11 ± 0.31 |
| MSRTTTVDGAPASDTDKQSISQPNQFIKRGTPQFMRVTLALFSAGLATFALLYCVQPILPVLSQEFGLTPANSSISLSISTAMLAIGLLFTGPLSDAIGRKPVMVTALLLASICTLLSTMMTSWHGILIMRALIGLSLSGVAAVGMTYLSEEIHPSFVAFSMGLYISGNSIGGMSGRLISGVFTDFFNWRIALAAIGCFALASALMFWKILPESRHFRPTSLRPKTLFINFRLHWRDRGLPLLFAEGFLLMGSFVTLFNYIGYRLMLSPWHVSQAVVGLLSLAYLTGTWSSPKAGTMTTRYGRGPVMLFSTGVMLFGLLMTLFSSLWLIFAGMLLFSAGFFAAHSVASSWIGPRAKRAKGQASSLYLFSYYLGSSIAGTLGGVFWHNYGWNGVGAFIALMLVIALLVGTRLHRRLHA | 1.3 | 1.36 ± 0.35 | 1.46 ± 0.017 | 1.1 ± 0.07 | 2.24 ± 0.1 | – | – | – | 1.42 ± 0.079 | 2.65 ± 0.55 | – | 2.5 |

Source: the supplement of paper PMC11246515
